Legend:
[1] = biological target: biotinylated-mPD1 (mouse) (UniProt Q02242); test: whole cell ELISA, scFv displayed on E. coli Nissle, biotinylated mPD1, streptavidin-HRP, TMB
Biotinylated IgG = test: whole cell ELISA, scFv displayed on E. coli Nissle, biotinylated IgG as negative control, streptavidin-HRP, TMB
IgG (coating control) [2] = test: ELISA, IgG coated plate, E. coli extract (1/2), anti-V5-HRP, TMB
IgG (coating control) [3] = test: ELISA, IgG coated plate, E. coli extract, anti-V5-HRP, TMB
NK cells = conditions: upon treatment; cited from earlier work
[4] = biological target: T1, mouseCD47 (recombinant) (mouse) (UniProt Q61735); test: ELISA, mCD47 coated plate, bacterial supernatant
T1 sequence (looked up): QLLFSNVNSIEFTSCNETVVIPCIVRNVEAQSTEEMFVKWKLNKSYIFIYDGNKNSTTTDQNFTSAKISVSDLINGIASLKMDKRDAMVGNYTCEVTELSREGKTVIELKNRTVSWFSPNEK

IgG (coating control) [5] = test: ELISA, IgG coated plate, bacterial supernatant
[6] = biological target: T2, secreted mCD40L1 (47-260) (mouse, UniProt P27548 47-260); test: ELISA, mCD40 coated plate
T2 construct: range 47-260; also called Secreted CD40-L1; SYN3366 supernatant
T2 sequence (looked up): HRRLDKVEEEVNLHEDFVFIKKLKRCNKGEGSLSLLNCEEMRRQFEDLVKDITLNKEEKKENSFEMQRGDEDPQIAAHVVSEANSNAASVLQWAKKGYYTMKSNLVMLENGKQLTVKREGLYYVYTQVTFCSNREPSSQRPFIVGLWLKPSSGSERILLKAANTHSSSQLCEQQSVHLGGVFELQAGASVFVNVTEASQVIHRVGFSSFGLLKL

[7] = biological target: T3, recombinant SIRPα (Rndsystems) (mouse, UniProt P97797 32-373); test: flow cytometry competition on CT26 cells
T3 construct: also called recombinant mSIRPα
T3 sequence (looked up): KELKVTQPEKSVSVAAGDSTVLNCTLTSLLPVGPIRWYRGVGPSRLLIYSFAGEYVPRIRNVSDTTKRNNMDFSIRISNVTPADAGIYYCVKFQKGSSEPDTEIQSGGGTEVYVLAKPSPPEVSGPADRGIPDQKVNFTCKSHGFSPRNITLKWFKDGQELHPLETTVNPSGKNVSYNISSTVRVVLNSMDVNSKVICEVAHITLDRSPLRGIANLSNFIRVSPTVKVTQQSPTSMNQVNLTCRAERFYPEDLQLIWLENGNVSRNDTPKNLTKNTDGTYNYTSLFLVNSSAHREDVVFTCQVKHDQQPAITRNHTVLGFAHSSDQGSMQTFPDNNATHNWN

PD1 on mouse EL4 cells = biological target: T4, PD1 on mouse EL4 cells (Mus musculus, UniProt Q02242); test: Flow cytometric analysis of anti-PD1-scFv binding to EL4 cells, PDL1 competition
T4 construct: EL4 are a mouse lymphoma cell line which expresses PD1 on its cell surface; endogenous in cells; host or cells: EL4 (mouse lymphoma)
T4 sequence (Q02242 25-288): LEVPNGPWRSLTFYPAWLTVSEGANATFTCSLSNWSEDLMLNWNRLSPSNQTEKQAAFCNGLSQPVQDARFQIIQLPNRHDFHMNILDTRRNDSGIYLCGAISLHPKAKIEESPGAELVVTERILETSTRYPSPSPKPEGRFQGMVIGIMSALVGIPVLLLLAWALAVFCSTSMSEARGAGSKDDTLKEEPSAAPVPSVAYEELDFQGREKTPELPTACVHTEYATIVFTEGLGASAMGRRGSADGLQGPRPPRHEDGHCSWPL
Protocol: To determine whether anti-PD1-scFv expressed in E. coli binds to surface PD1 on mouse EL4 cells, flow cytometric analysis was performed using EL4 cells. EL4 are a mouse lymphoma cell line which expresses PD1 on its cell surface.
EL4 cells were grown in Dulbecco's Modified Eagle's Medium (DMEM) with 10% FBS. Cells were spun down, supernatant was aspirated, pellet was resuspended in 1 nil D-PBS, transferred into chilled assay tubes (1×10^6 cells), and washed 2-3 times in D-PBS with 0.5% BSA. Cells were resuspended in PBS with 0.5% BSA, to which the purified scFv-V5 and anti-V5-FITC antibody were added and incubated for 1 hour at room temperature. Negative control left out scFv-V5. Cells were resuspended in 0.5 ml PBS and analyzed on a flow cytometer.
EL4 are a mouse lymphoma cell line which expresses PD1 on its cell surface.
EL4 cells were grown in Dulbecco's Modified Eagle's Medium (DMEM) with 10% FBS and 1% Penicillin-Streptomycin Cells were spun down, supernatant was aspirated, pellet was resuspended in 1 ml D-PBS, transferred into chilled assay tubes (1×10^6 cells), and washed 3 times in D-PBS. Cells were resuspended in D-PBS with 0.5% BSA, to which the purified scFv-V5 and anti-V5-FITC antibody were added and incubated for 1 hour at room temperature. Negative control left out secreted J43-scFv-V5. Cells were then resuspended in 0.5 ml PBS and analyzed on a flow cytometer. Results are shown in (FIG. 64).
Next, a competition assay was conducted to determine whether PDL1 could inhibit the binding of the anti-PD1-scFv secreted by the genetically engineered bacteria from binding to murine PD1. EL4 cells were grown and flow cytometry protocol was conducted essentially as described above except that PDL1 was added at various concentrations ([…]) during the incubation of the secreted anti-PD1-scFv-V5. Rat-IgG was used as a negative control of secreted scFv.

PD1 = biological target: T5, PD1 (Mus musculus, UniProt Q02242); test: ELISA binding assay of bacterial extracts (J43-scFv); conditions: α-V5-HRP
T5 construct: purchased Rndsystems
T5 sequence (Q02242 25-288): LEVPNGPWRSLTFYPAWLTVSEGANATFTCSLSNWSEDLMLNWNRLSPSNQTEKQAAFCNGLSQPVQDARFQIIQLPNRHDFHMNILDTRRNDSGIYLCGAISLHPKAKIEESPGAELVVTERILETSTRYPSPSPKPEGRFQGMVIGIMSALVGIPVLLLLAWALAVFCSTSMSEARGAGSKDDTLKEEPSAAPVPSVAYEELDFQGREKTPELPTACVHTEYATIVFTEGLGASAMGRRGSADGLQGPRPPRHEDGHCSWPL
Protocol: E. coli comprising either tet-inducible J43-Anti-PD1-scFv-V5 or wild type controls were grown overnight in LB medium. […] Same amount of tetracycline was added to wild type control cultures.

anti-mCD40L antibody = test: CD40 ELISA binding assay, plate coated with anti-mCD40L antibody; conditions: clarified supernatant
Protocol: (§1) Cultures were diluted 1:100 in LB and grown shaking (200 rpm) to an optical density of 0.8, at which time the cultures were cooled down to room temperature and anhydrous tetracycline (ATC) was added to cultures at a concentration of 100 ng/mL, to induce expression of mCD40L1 and mCD40L2.
(§2) After 18 hours of induction, cells were spun down, and supernatant was collected. To generate cell free medium, the clarified supernatant was further filtered through a 0.22 micron filter to remove any remaining bacteria and placed on ice.

mCD40 = biological target: T6, mCD40 (Mus musculus, UniProt P27512); test: CD40 ELISA binding assay, plate coated with mCD40; conditions: clarified supernatant; for CD40 ELISA signal, coating material IgG / CD40 ELISA signal, coating material PBS: control coating
T6 sequence (P27512 20-289): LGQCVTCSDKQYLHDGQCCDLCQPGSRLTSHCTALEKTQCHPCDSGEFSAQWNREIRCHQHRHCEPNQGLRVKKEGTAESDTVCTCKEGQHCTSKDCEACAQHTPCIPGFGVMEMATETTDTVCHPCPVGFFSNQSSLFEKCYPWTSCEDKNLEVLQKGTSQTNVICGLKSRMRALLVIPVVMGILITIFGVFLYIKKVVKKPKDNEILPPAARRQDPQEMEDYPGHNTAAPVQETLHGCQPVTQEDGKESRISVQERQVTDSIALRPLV
Protocol: as §1, §2

LppOmpA-FLAG-J43scFv-V5-HIS displayed on E. coli Nissle SYN2798
OD450 [1]: 0.421
OD450 (Biotinylated IgG): 0.133

J43-Anti-PD1-scFv-V5
ELISA signal at 450 nm (IgG (coating control) [2]): 0.11
ELISA signal at 450 nm (IgG (coating control) [3]): 0.13

recombinant human IL-15: recombinant human IL-15 of a first-in-human clinical trial
expansion of NK cells (NK cells): 10 fold
proliferation of γδT cells and CD8+ T cells (NK cells): significantly increased

B1: secreted anti-mCD47 scFv (scFv, from a related filing)
scFv: QVKLLQSGAALVKPGASVKMSCQASGYSFTDYWVTWVKQSHGQSLEWIGEIYPSNTVTNFNDNFKGKATLTVDKSTSTAYMELSRLTSEDSAIYYCTRIGNSGYRVGWFIYWGQGTLVTVLSGGGGSGGGGSGGGGSDTVLTQSPALAVSPGERVTISCKASESVSSHMHWYQQKPGQQPKLLIYKASNLASGVPARFSGSGSGTDFTLTIDPVEADDTATYFCQQGWNGPFTFGAGTRLELKRADAAGSGELGGSGKPIPNPLLGLDSTGSGHHHHHH
ELISA signal [4]: 0.527
ELISA signal (IgG (coating control) [5]): 0.067

B2: mCD40 (receptor, mouse, UniProt P27512 24-193, looked up)
chain: VTCSDKQYLHDGQCCDLCQPGSRLTSHCTALEKTQCHPCDSGEFSAQWNREIRCHQHRHCEPNQGLRVKKEGTAESDTVCTCKEGQHCTSKDCEACAQHTPCIPGFGVMEMATETTDTVCHPCPVGFFSNQSSLFEKCYPWTSCEDKNLEVLQKGTSQTNVICGLKSRMR
binding result [6]: binds

B3: CD47 on mouse CT26 cells (receptor, UniProt Q61735 19-303, looked up)
chain: QLLFSNVNSIEFTSCNETVVIPCIVRNVEAQSTEEMFVKWKLNKSYIFIYDGNKNSTTTDQNFTSAKISVSDLINGIASLKMDKRDAMVGNYTCEVTELSREGKTVIELKNRTVSWFSPNEKILIVIFPILAILLFWGKFGILTLKYKSSHTNKRIILLLVAGLVLTVIVVVGAILLIPGEKPVKNASGLGLIVISTGILILLQYNVFMTAFGMTSFTIAILITQVLGYVLALVGLCLCIMACEPVHGPLLISGLGIIALAELLGLVYMKFVASNQRTIQPPRNR
notes: whole, on cells; also called murine CD47 on CT26 cells
binding result [7]: binds

B4: J43-scFv-V5: anti-PD1 single-chain variable fragment based on J43 monoclonal antibody, V5 tagged, expressed in E. coli (protein)
scFv: MQLEVRLLESGGGLVKPEGSLKLSCVASGFTFSDYFMSWVRQAPGKGLEWVAHIYTKSYNYATYYSGSVKGRFTISRDDSRSMVYLQMNNLRTEDTATYYCTRDGSGYPSLDFWGQGTQVTVSSGGGGSGGGGSGGGGSYELTQPPSASVNVGETVKITCSGDQLPKYFADWFHQRSDQTILQVIYDDNKRPSGIPERISGSSSGTTATLTIRDVRAEDEGDYYCFSGYVDSDSKLYVFGSGTQLTVLGKGELNSKLEGKPIPNPLLGLDSTRTGHHHHHH
PDL1 competition against binding to mPD1 on EL4 cells (PD1 on mouse EL4 cells; PDL1 added at various concentrations): PDL1 competed in a dose dependent manner
binding to surface PD1 on EL4 cells (flow cytometry) (PD1 on mouse EL4 cells; purified scFv, anti-V5-FITC): population shift is observed
staining of EL4 cells with different amounts of secreted scFv (PD1 on mouse EL4 cells; secreted scFv, increasing amounts): dose-dependent staining of the EL4 cells was observed
binding to PD1 on EL4 cells (flow cytometry) (PD1 on mouse EL4 cells; secreted scFv, anti-V5-FITC): population shift is observed
Signal intensity at 450 nm, IgG coating (PD1; bacterial extract (1/2)): 0.11
Signal intensity at 450 nm, PBS coating (PD1; bacterial extract (1/2)): 0.10
Signal intensity at 450 nm, mPD1 coating (PD1; bacterial extract (1/2)): 0.90
Signal intensity at 450 nm, IgG coating (PD1; bacterial extract): 0.13
Signal intensity at 450 nm, PBS coating (PD1; bacterial extract): 0.11
Signal intensity at 450 nm, mPD1 coating (PD1; bacterial extract): 1.41

B5: Secreted CD40-L1: mCD40L1 (47-260), extracellular portion of mCD40L, secreted by SYN3366 (protein)
chain: HRRLDKVEEEVNLHEDFVFIKKLKRCNKGEGSLSLLNCEEMRRQFEDLVKDITLNKEEKKENSFEMQRGDEDPQIAAHVVSEANSNAASVLQWAKKGYYTMKSNLVMLENGKQLTVKREGLYYVYTQVTFCSNREPSSQRPFIVGLWLKPSSGSERILLKAANTHSSSQLCEQQSVHLGGVFELQAGASVFVNVTEASQVIHRVGFSSFGLLKL
modifications: left off: small tags and cut ends
CD40 ELISA signal, coating material Anti-mCD40L (anti-mCD40L antibody): 0.394
CD40 ELISA signal, coating material mCD40 (mCD40): 0.231
CD40 ELISA signal, coating material IgG (mCD40): 0.052
CD40 ELISA signal, coating material PBS (mCD40): 0.049

B6: Secreted CD40-L2: mCD40L2 (112-260), soluble form of mCD40L, secreted by SYN3367 (protein)
chain: MQRGDEDPQIAAHVVSEANSNAASVLQWAKKGYYTMKSNLVMLENGKQLTVKREGLYYVYTQVTFCSNREPSSQRPFIVGLWLKPSSGSERILLKAANTHSSSQLCEQQSVHLGGVFELQAGASVFVNVTEASQVIHRVGFSSFGLLKL
modifications: left off: small tags and cut ends
CD40 ELISA signal, coating material Anti-mCD40L (anti-mCD40L antibody): 0.825
CD40 ELISA signal, coating material mCD40 (mCD40): 0.639
CD40 ELISA signal, coating material IgG (mCD40): 0.052
CD40 ELISA signal, coating material PBS (mCD40): 0.05
